The chains are these.
B1: VF2468 18 (dsDNA)
DNA 1: AGCAGAGTCAGACTTGAGTGAGGT
DNA 2: ACCTCACTCAAGTCTGACTCTGCT
B2: VF2468 78 (dsDNA)
DNA 1: AGCAATGTCAAAAAGAGTGAGGC
DNA 2: GCCTCACTCTTTTTGACATTGCT
B3: VF2468 19 TTC4 (dsDNA)
DNA 1: AGCAGAGTCTCTGAGAGTGAGGC
DNA 2: GCCTCACTCTCAGAGACTCTGCT
B4: VF2468 72 (dsDNA)
DNA 1: AGAAACGTCGTGGAGGAGTGAGGG
DNA 2: CCCTCACTCCTCCACGACGTTTCT
B5: VF2468 73 (dsDNA)
DNA 1: AGCAAAGTCTGTACTGAGTGAGGG
DNA 2: CCCTCACTCAGTACAGACTTTGCT
B6: VF2468 11 (dsDNA)
DNA 1: AGCAGCGTCTCCCTTGAGTGATGG
DNA 2: CCATCACTCAAGGGAGACGCTGCT
B7: VF2468 28 (dsDNA)
DNA 1: AGCAGCTTCTCCTGGGAGTGAGGG
DNA 2: CCCTCACTCCCAGGAGAAGCTGCT
B8: VF2468 23 (dsDNA)
DNA 1: AGCAGCGACGCCTGGGAGTGAGGT
DNA 2: ACCTCACTCCCAGGCGTCGCTGCT
B9: VF2468 24 (dsDNA)
DNA 1: AGCAGCGTATCACATGAGTGAGGG
DNA 2: CCCTCACTCATGTGATACGCTGCT
B10: VF2468 29 (dsDNA)
DNA 1: AGCAGGGTCAGGGCTGAGTGAGGC
DNA 2: GCCTCACTCAGCCCTGACCCTGCT
B11: VF2468 35 (dsDNA)
DNA 1: AGCAGTGTCCTAAGGGGGTGAGGA
DNA 2: TCCTCACCCCCTTAGGACACTGCT
B12: VF2468 79 (dsDNA)
DNA 1: AGCACCGTGGCTTCGAGTGAGGC
DNA 2: GCCTCACTCGAAGCCACGGTGCT
B13: VF2468 15 (dsDNA)
DNA 1: AGCAACGTCATATTCAGTGAGGA
DNA 2: TCCTCACTGAATATGACGTTGCT
B14: VF2468 68 (dsDNA)
DNA 1: AGCACCGTCCCCCTCAGTGAGGC
DNA 2: GCCTCACTGAGGGGGACGGTGCT
B15: VF2468 69 MTX2 (dsDNA)
DNA 1: AGCAGCGGCGGCTGCAGTGAGGC
DNA 2: GCCTCACTGCAGCCGCCGCTGCT
B16: VF2468 66 GBF1 (dsDNA)
DNA 1: AGCAACGTCCATAGTGTGTGAGAA
DNA 2: TTCTCACACACTATGGACGTTGCT
B17: VF2468 62 (dsDNA)
DNA 1: TGCAGCGGCGTAGGGGAGTGAGGA
DNA 2: TCCTCACTCCCCTACGCCGCTGCA
B18: VF2468 38 (dsDNA)
DNA 1: AGCATCGTCTTCTGTGAGTGAGTA
DNA 2: TACTCACTCACAGAAGACGATGCT
B19: CCR5-224 25 WBSCR17 (dsDNA)
DNA 1: GTTATCCTCAGCAAACTAAAACTGGAACAG
DNA 2: CTGTTCCAGTTTTAGTTTGCTGAGGATAAC
B20: CCR5-224 11 TACR3 (dsDNA)
DNA 1: GTCATCTTCATCAGCATAAACTGTAAAGT
DNA 2: ACTTTACAGTTTATGCTGATGAAGATGAC
B21: CCR5-224 16 (dsDNA)
DNA 1: GTCTTCCTGATGCTACCAAACTGGAAAAG
DNA 2: CTTTTCCAGTTTGGTAGCATCAGGAAGAC
B22: CCR5-224 9 (dsDNA)
DNA 1: GTCATCTTCATCAAAAGGAACTGCAAAAC
DNA 2: GTTTTGCAGTTCCTTTTGATGAAGATGAC
B23: CCR5-224 15 KCNB2 (dsDNA)
DNA 1: ATGTTCCTCATCTCCCGAAACTGCAAATG
DNA 2: CATTTGCAGTTTCGGGAGATGAGGAACAT
B24: CCR5-224 21 (dsDNA)
DNA 1: GTCAACCTCAACACCTACAGACTGCAAAAG
DNA 2: CTTTTGCAGTCTGTAGGTGTTGAGGTTGAC
B25: CCR5-224 14 (dsDNA)
DNA 1: GTCCTGCTCAGCAAAAGAAACTGAAAAAG
DNA 2: CTTTTTCAGTTTCTTTTGCTGAGCAGGAC

The target in one data set is T1, VF2468 ZFN heterodimer (UniProt P14870;P14870 SEQ:1-324,SEQ:1-324). The data set is described as follows: cell_activity; K562. To be noted: tags: FokI obligate heterodimer; in vitro selection used in vitro-translated protein; chain copies: 2 (stated heterodimer). On the procedure: (§1) PCR for 37 potential CCR5-224 substrates and 97 potential VF2468 substrates was performed with Phusion DNA Polymerase (NEB) and primers “[ZFN] […] fwd” and “[ZFN] […] rev” (Table 9) in 1× Phusion HF Buffer supplemented with 3% DMSO. Primers were designed using Primer3³³. The amplified DNA was purified with the Qiagen PCR Purification Kit, eluted with 10 mM Tris-HCl, pH 8.5, and quantified by 1K Chip on a LabChip GX instrument (Caliper Life Sciences) and combined into separate equimolar pools for the catalytically active and empty vector control samples. PCR products were not obtained for 3 CCR5 sites and 7 VF2468 sites, which excluded these samples from further analysis. Multiplexed Illumina library preparation was performed according to the manufacturer's specifications, except that AMPure XP beads (Agencourt) were used for purification following adapter ligation and PCR enrichment steps. Illumina indices 11 (“GGCTAC”) and 12 (“CTTGTA”) were used for ZFN-treated libraries while indices 4 (“TGACCA”) and 6 (“GCCAAT”) were used for the empty vector controls. Library concentrations were quantified by KAPA Library Quantification Kit for Illumina Genome Analyzer Platform (Kapa Biosystems). Equal amounts of the barcoded libraries derived from active- and empty vector-treated cells were diluted to 10 nM and subjected to single read sequencing on an Illumina HiSeq 2000 at the Harvard University FAS Center for Systems Biology Core facility. Sequences were analyzed using Protocol 9 for active ZFN samples and empty vector controls.
T1 sequence (P14870 other isoform, or with tags, fused parts or gaps, chain 1 of 2): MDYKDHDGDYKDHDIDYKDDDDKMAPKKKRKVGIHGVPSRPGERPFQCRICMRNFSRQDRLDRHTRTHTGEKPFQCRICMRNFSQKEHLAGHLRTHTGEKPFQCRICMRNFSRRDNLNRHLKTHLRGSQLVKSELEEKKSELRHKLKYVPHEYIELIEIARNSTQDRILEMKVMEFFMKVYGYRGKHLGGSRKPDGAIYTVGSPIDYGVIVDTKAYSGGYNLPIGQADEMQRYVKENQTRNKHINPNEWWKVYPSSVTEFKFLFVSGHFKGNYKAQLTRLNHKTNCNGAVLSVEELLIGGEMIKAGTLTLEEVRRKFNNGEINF
T1 sequence (P14870 other isoform, or with tags, fused parts or gaps, chain 2 of 2): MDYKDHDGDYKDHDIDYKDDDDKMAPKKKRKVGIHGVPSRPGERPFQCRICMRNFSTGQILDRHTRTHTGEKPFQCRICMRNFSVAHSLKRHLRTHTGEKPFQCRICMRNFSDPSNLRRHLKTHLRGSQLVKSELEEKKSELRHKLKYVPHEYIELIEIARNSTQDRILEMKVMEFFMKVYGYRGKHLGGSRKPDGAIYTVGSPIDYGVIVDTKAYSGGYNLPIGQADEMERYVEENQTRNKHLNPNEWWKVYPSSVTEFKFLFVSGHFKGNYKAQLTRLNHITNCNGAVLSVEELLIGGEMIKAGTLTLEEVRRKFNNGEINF
In turn, B1 returned an activity of 0.1 % indels.
In turn, B2 gave an activity of 0.15 % indels.
The molecule B3 gave an activity of 0.086 % indels.
Take B4: the activity was 0.042 % indels.
With B5, the activity was determined as 1.3 % indels.
The same measure, in the same setting: under B6 stands 0.04 % indels.
Molecule B7 returned an activity of 0.32 % indels.
Same read-out and setting: for B8 the value was 1.1 % indels.
Same read-out and setting: under B9 stands 0.44 % indels; under B10, 0.2 % indels; under B11, 0.13 % indels.
Same read-out and setting: for B12 the value was 0.029 % indels.
In turn, B13 displayed an activity of 0.06 % indels.
Same read-out and setting: under B14 stands 0.28 % indels.

Another data set has as its target T1, VF2468 ZFN heterodimer. The data set is described as follows: cell_activity; K562; printed value. To be noted: tags: FokI obligate heterodimer; in vitro selection used in vitro-translated protein; chain copies: 2 (stated heterodimer). As for the experimental part: as §1
As for B15, the activity amounted to 0.3 % indels.
Same read-out and setting: under B16 stands 0.64 % indels.
Regarding B17, the activity worked out at 0.085 % indels.
Same read-out and setting: under B18 stands 0.082 % indels.

The target of another data set is CCR5-224 ZFN heterodimer (UniProt P14870; SEQ:1-353,SEQ:1-352). Kind of data set: cell_activity; K562; in vitro selected at 4 nM. To be noted: tags: FokI obligate heterodimer; in vitro selection used in vitro-translated protein; chain copies: 2 (stated heterodimer). As for the experimental part: as §1
CCR5-224 ZFN heterodimer, sequence (P14870 other isoform, or with tags, fused parts or gaps, chain 1 of 2): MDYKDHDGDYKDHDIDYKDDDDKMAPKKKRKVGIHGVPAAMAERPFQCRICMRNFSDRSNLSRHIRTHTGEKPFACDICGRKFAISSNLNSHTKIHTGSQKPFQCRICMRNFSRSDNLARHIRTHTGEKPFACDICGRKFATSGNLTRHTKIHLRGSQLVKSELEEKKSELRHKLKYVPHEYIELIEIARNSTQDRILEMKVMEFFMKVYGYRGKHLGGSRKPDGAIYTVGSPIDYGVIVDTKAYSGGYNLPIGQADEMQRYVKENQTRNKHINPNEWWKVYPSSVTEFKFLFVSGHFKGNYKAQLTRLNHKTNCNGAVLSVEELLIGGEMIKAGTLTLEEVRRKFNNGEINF
CCR5-224 ZFN heterodimer, sequence (P14870 other isoform, or with tags, fused parts or gaps, chain 2 of 2): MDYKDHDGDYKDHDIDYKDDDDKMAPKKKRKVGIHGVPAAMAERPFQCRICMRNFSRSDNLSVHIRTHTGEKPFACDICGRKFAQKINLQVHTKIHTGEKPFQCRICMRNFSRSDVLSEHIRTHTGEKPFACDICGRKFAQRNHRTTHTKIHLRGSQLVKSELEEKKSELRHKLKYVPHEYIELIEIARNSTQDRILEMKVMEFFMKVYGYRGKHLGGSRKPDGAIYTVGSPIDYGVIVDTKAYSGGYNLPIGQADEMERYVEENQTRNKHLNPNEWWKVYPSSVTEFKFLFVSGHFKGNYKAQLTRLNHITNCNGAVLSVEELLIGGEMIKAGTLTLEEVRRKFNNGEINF
With B19, the activity was 0.12 % indels.
Same read-out and setting: for B20 the value was 0.34 % indels; for B21, 0.019 % indels.
The same measure, in the same setting: under B22 stands 0.035 % indels.
B23 came in with an activity of 0.071 % indels.
The same measure, in the same setting: for B24 the value was 0.06 % indels; for B25, 0.025 % indels.

These data come from patent US20200010818, “EVALUATION AND IMPROVEMENT OF NUCLEASE CLEAVAGE SPECIFICITY” (President and Fellows of Harvard College, published 2020).
